Bridge positions count the residues as written; N and C are the ends. Square brackets hold non-standard residues; d marks the D form. dPhe(3-Cl) = N[C@H](Cc1cccc(Cl)c1)C(=O)O; dPhe(4-Cl) = N[C@H](Cc1ccc(Cl)cc1)C(=O)O; dPhe(4-Me) = Cc1ccc(C[C@@H](N)C(=O)O)cc1; dPhe(2-Cl) = N[C@H](Cc1ccccc1Cl)C(=O)O; dPhe(4-F) = N[C@H](Cc1ccc(F)cc1)C(=O)O; dPhe(2-F) = N[C@H](Cc1ccccc1F)C(=O)O; Nle = CCCC[C@H](N)C(=O)O; Orn = NCCC[C@H](N)C(=O)O; Dab = NCC[C@H](N)C(=O)O; Dap = NC[C@H](N)C(=O)O
Key:
[1] = molecular target: recombinant human melanocortin-4 receptor hMCR-4 (human) (UniProt P32245); experiment: competition with [I125]-NDP-α-MSH; HEK-293 hMCR-4 membrane homogenates
Sequence of recombinant human melanocortin-4 receptor hMCR-4 (human) (P32245 whole entry): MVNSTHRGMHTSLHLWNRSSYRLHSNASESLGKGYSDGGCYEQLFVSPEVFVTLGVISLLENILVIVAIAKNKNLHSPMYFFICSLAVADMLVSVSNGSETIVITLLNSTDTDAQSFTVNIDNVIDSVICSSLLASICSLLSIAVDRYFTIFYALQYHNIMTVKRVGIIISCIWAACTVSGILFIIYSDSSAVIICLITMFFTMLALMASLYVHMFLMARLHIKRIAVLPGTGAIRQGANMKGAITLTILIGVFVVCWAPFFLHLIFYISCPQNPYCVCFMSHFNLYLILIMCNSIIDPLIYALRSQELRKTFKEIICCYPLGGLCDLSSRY

[2] = molecular target: recombinant human melanocortin-1 receptor hMCR-1a (human) (UniProt Q01726); experiment: competition with [I125]-NDP-α-MSH; HEK-293 hMCR-1a membrane homogenates
Sequence of recombinant human melanocortin-1 receptor hMCR-1a (human) (Q01726 whole entry): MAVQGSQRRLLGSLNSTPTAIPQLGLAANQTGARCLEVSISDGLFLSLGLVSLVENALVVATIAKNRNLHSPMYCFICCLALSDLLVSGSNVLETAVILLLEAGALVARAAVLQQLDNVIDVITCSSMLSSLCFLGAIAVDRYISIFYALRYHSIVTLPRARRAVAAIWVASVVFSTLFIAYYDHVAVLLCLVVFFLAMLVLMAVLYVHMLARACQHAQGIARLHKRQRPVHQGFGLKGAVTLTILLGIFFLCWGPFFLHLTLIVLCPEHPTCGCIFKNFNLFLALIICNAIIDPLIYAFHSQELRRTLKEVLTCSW

Ki [1] [nM]	Ki [2] [nM]	Substance
535	–	Ac-D-Phe-cyclo(Glu-His-D-Phe-Arg-Dab)-Trp-NH2 (peptide)
380	0.015	Ac-Nle-cyclo(Dab-His-D-Phe-Arg-Dab)-Trp-NH2 with bridge C(═O)-(CH2)2-C(═O) (peptide)
325	0.025	Ac-Nle-cyclo(Dab-His-D-Phe-Arg-Dap)-Trp-NH2 with bridge C(═O)-(CH2)2-C(═O) (peptide)
860	0.065	Ac-Nle-cyclo(Dap-His-D-Phe-Arg-Dab)-Trp-NH2 with bridge C(═O)-(CH2)2-C(═O) (peptide)
680	0.03	Ac-Nle-cyclo(Dap-His-D-Phe-Arg-Dap)-Trp-NH2 with bridge C(═O)-(CH2)2-C(═O) (peptide)
455	–	Ac-Nle-cyclo(Glu-Ala-D-Phe-Arg-Dab)-Trp-NH2 (SEQ ID NO: 52) (peptide)
455	–	Ac-Nle-cyclo(Glu-Ala-D-Phe-Arg-Dab)-Trp-NH2 (peptide)
20	–	Ac-Nle-cyclo(Glu-Arg-D-Phe-Arg-Dab)-Trp-NH2 (SEQ ID NO: 53) (peptide)
20	–	Ac-Nle-cyclo(Glu-Arg-D-Phe-Arg-Dab)-Trp-NH2 (peptide)
98	0.45	Ac-Nle-cyclo(Glu-Cit-D-Phe-Arg-Dab)-Trp-NH2 (SEQ ID NO: 54) (peptide)
98	0.45	Ac-Nle-cyclo(Glu-Cit-D-Phe-Arg-Dab)-Trp-NH2 (peptide)
98	0.05	Ac-Nle-cyclo(Glu-Dab-D-Phe-Arg-Dab)-Trp-NH2 (SEQ ID NO: 57) (peptide)
98	0.05	Ac-Nle-cyclo(Glu-Dab-D-Phe-Arg-Dab)-Trp-NH2 (peptide)
2	0.1	Ac-Nle-cyclo(Glu-His-D-Phe-Arg-Dab)-D-Nal 1-NH2 (peptide)
33	0.55	Ac-Nle-cyclo(Glu-His-D-Phe-Arg-Dab)-D-Trp-NH2 (peptide)
0.75	0.005	Ac-Nle-cyclo(Glu-His-D-Phe-Arg-Dab)-Nal 1-NH2 (peptide)
0.095	0.02	Ac-Nle-cyclo(Glu-His-D-Phe-Arg-Dab)-Nal 2-NH2 (SEQ ID NO: 14) (peptide)
3	0.01	Ac-Nle-cyclo(Glu-His-D-Phe-Arg-Dab)-Nal 2-NH2 (peptide)
110	–	Ac-Nle-cyclo(Glu-His-D-Phe-Arg-Dab)-Trp-NH2 (peptide)
10000	2	Ac-Nle-cyclo(Glu-His-D-Phe-Arg-Dab)-Trp-OH (peptide)
358	–	Ac-Nle-cyclo(Glu-His-D-Phe-Arg-Dap)-Trp-NH2 (peptide)
4700	1	Ac-Nle-cyclo(Glu-His-D-Phe-Arg-Dap)-Trp-OH (peptide)
295	–	Ac-Nle-cyclo(Glu-His-D-Phe-Arg-Orn)-Trp-NH2 (peptide)
95	–	Ac-Nle-cyclo(Glu-Lys-D-Phe-Arg-Dab)-Trp-NH2 (SEQ ID NO: 56) (peptide)

Ki [1] [nM]	Ki [2] [nM]	Substance
95	–	Ac-Nle-cyclo(Glu-Lys-D-Phe-Arg-Dab)-Trp-NH2 (peptide)
10000	40	Ac-Nle-cyclo(Glu-Orn-D-Phe(3,4-F)-Arg-Dab)-NH2 (peptide)
10000	2	Ac-Nle-cyclo(Glu-Orn-D-Phe(4-OMe)-Arg-Dab)-NH2 (peptide)
45	0.015	Ac-Nle-cyclo(Glu-Orn-D-Phe-Arg-Dab)-Trp-NH2 (SEQ ID NO: 58) (peptide)
45	0.015	Ac-Nle-cyclo(Glu-Orn-D-Phe-Arg-Dab)-Trp-NH2 (peptide)
10000	2250	Ac-Nle-cyclo(Glu-Pro-D-Phe-Arg-Dab)-NH2 (peptide)
1320	2	Ac-[Nle]DH[dF]R[Dap]W-NH2 (lactam 2-6)
10000	645	Ac-[Nle]EH[dF]A[Dab]-NH2 (lactam 2-6)
10000	645	Ac-[Nle]EH[dF]A[Dab]-NH2 (lactam 2-6; SEQ ID NO: 48)
10000	–	Ac-[Nle]EH[dF]A[Dab]W-NH2 (lactam 2-6)
10000	9	Ac-[Nle]EH[dF]G[Dab]W-NH2 (lactam 2-6)
10000	7	Ac-[Nle]EH[dF]R[Dab]-NH2 (lactam 2-6)
10000	7	Ac-[Nle]EH[dF]R[Dab]-NH2 (lactam 2-6; SEQ ID NO: 47)
7480	2	Ac-[Nle]EH[dF]R[Dab]A-NH2 (lactam 2-6)
7380	2	Ac-[Nle]EH[dF]R[Dab]K-NH2 (lactam 2-6)
10000	10000	Ac-[Nle]EH[dF][Dab]-NH2 (lactam 2-5)
185	3	Ac-[Nle]EP[dF]R[Dab]W-NH2 (lactam 2-6)
3620	4	Ac-[Nle]E[Orn][dF]R[Dab]-NH2 (lactam 2-6)
10000	30	Ac-[Nle]E[Orn][dPhe(2-Cl)]R[Dab]-NH2 (lactam 2-6)
10000	18	Ac-[Nle]E[Orn][dPhe(2-F)]R[Dab]-NH2 (lactam 2-6)
10000	35	Ac-[Nle]E[Orn][dPhe(3-Cl)]R[Dab]-NH2 (lactam 2-6)
1240	2	Ac-[Nle]E[Orn][dPhe(4-Cl)]R[Dab]-NH2 (lactam 2-6)
10000	20	Ac-[Nle]E[Orn][dPhe(4-F)]R[Dab]-NH2 (lactam 2-6)
10000	3	Ac-[Nle]E[Orn][dPhe(4-Me)]R[Dab]-NH2 (lactam 2-6)

Source: patent US20120225828A1
